A short description of the series: soluble on expression in E. coli; label from the status in PepcDB or PDB records.
“MAKSLLFITSFLKPRYNKPIMEKNWNVGTKYLNDKTRIIVVGITGREASQVVTESEALYPGFIKVGVTPGKGGTEVAGVPVFNTVKEALSSPEGKDVNTGLVYVPPASVKDAVIELIDAGIKLIYIVTEHVPIRDTVYFYHYAKERGVTIVGPTSLGCIVPRIPARIGAIGGKNPSIAYADGGLVILSKSGGLTTTTAEMFKRRGWGVYMALALGGDVISCTTFADVLEEIADDPNVKGVVIQGEVGGTYEEQAAETILRLYKEGRWNKPVAAFVAGKFQEKMEGVSFGHAGAIVERGKGKATDKIRMFNEVGKETGLVKVAEFYHDLVNCIEELGVPRDFEDSTPGGKVEPLYRTIDPETCEFKPQD”: the “soluble on expression in E. coli” value is given as “soluble”.

In the case of “MLPLNATITQIIEESPLIRTFFFDHKFEDMEPGQFVMVWVRGVDEVPMGLSRNNSITVQKVGEATSKLFELKEGDSFGLRGPFGKGFTLPAKGEKVLIIAGGVGAAPLSPYAEAAFAAGAEVNTVLGARSEEHLLFEGRFEALGTVYVSTDDGSKGFKGFVTDVLKNLDVTSYDRIAVCGPEIMMASVFRFLEEREVLEKSEFSLHRYFKCGIGVCGACCIDRSGLRVCKDGPVFSGTQLIGSELGKYSRDASGRRVKI”, the “soluble on expression in E. coli” value is given as “not soluble”.

Consider “MGSDKIHHHHHHQPTGTMTTDSKLTSKESALALTNSAYLKNTVFNKMTPGWGCNTILLLEYMTGKATSENSQSNYKDFQDLLVSDRSLYIEDWWQDCYAGIANCNLALQKLGEFENLDASLVNGYMAEVKFMRALYYFYLVRIFGDVPKITTVQSELGELQVSRAPVKEIYDEIIIPDLLEAEQSDLAFSDHTGRVSMGAVKALLADVYLTYAGYPLQGGKSYYAESAKRSLEVIKSNEYTLFTDYESLRLPSQNNKGEFIYQVQFSLNKRHNESVRIFLPSRSGISAYDLEYGSLIPTKEFVESFEKGDKRTEEKQYFFTNYKGHPSKFSPGAAELEFMDLNGYYIYKFFDQVAVDNTAKSDLNWSVYRYTDVLLMYAEAQVNADGTPNQQSIDIVNQIRGRAGLAPFKQTNASAFLEEVWDQRYFDLCYENKMWFDMLRTRKIRDDKSGEYVDFIGYKTNWGKVYTETQLLFPIPLSERQANPNLTQNQGY”, for which the “soluble on expression in E. coli” value is “not soluble”.

As for “MAHHHHHHMVSGFVEFEILRGKNYPQTEDDPNPCTTQVTVSVVDALSGAVLSRAQLSSIQQNSNAPFYNDTLNFRVEDAPEDVCLSISVSEHSRQKIPFVLFYGKQIIGLSKLKAKQRFVIPLFSGEEGTQQVEIGADTLDLESSGKVPFLSARIQFTKDKVFDKTDPYSDVDVSGKGLSFDGKNQLVPEGTQYVWLRLKSDKKWTNSFQYELSVAWRSRAPLEAENQGNTKSRKGTTGGMAAISAEPDSARTLGDIIIKKWCCRRTHQVLTRVCITAEKYGNKVTDLTFTPKEEVEFRTNKKERCVFLEQICKKRLEDACSNCLRQWLNRLWILFVTGVDSDPAEARALSYEVRKAVHDAQFTEADAIILQACLLFSFIPSLKYEVCQALSESDYQAAQSEKKIEVGALESPQCRVTPSQEMFTRVFISFVGSLLDTLTEAEIAKAAAEFKPAIWDAQQRIAKGAKSTIGSCKKKYEGSIFKGTGIHIDHLDKLGRRKQVPKFV”, the “soluble on expression in E. coli” value is “soluble”.

For the sequence “MNASDFRRRGKEMVDYMADYLEGIEGRQVYPDVQPGYLRPLIPATAPQEPDTFEDILQDVEKIIMPGVTHWHSPYFFAYFPTASSYPAMLADMLCGAIGCIGFSWAASPACTELETVMMDWLGKMLQLPEAFLAGEAGEGGGVIQGSASEATLVALLAARTKVVRRLQAASPGLTQGAVLEKLVAYASDQAHSSVERAGLIGGVKLKAIPSDGKFAMRASALQEALERDKAAGLIPFFVVATLGTTSCCSFDNLLEVGPICHEEDIWLHVDAAYAGSAFICPEFRHLLNGVEFADSFNFNPHKWLLVNFDCSAMWVKRRTDLTGAFKLDPVYLKHSHQGSGLITDYRHWQLPLGRRFRSLKMWFVFRMYGVKGLQAYIRKHVQLSHEFEAFVLQDPRFEVCAEVTLGLVCFRLKGSDGLNEALLERINSARKIHLVPCRLRGQFVLRFAICSRKVESGHVRLAWEHIRGLAAELLAAEEGKAEIKS”, the “soluble on expression in E. coli” value is reported as “soluble”.

As for “MGLLPTDRWLEEDEGDPLRLCARLAPLFGKMPAREIYSYLRLYGMYRSTRQAERLLPEMKERRLWERLGRLYERQRGIWKGPDVPVFLLPADDENRKLVREFQGKGGVAFADKLFFFLLPDHCDEEIAALVAHEYNHVCRLKQLPNEGEDATLLDAVVMEGLAEHAVAETVGAEQCAGWTKYYTDREMERFWRRYIVPNQHLPVSHPHTSRILYGLGWHPKMGGYAVGYAIVRRCLERGCSLAQLMTMEAKDIAELAGFSGKQQGAS”, the “soluble on expression in E. coli” value is reported as “not soluble”.

Take “MGSDKIHHHHHHLKICLSCSARFTDSGWRCPVCFSTPEQVDGFLSFAPAQAKSDEGFQPHHFNELAQAEAEHFWFRSRNRLIIWALHRFFPDARKFLEIGCGTGFVLSGIAQDNPRLEISGSEIHSAGLSHAADRARNATLFQMDARDIPFDSEFDVIGAFDVLEHIEEDSQVLLQMFRAISPGGGMIVTVPQHRFLWSQQDEHACHVRRYEAQELQDKVEKAGFRVEKATSFVSLLLPLMFISRLSKRKPVENYDPTQEFRIKKWVNTILEGILDLERLMIRGRVSFPMGGSRLLIARKPAGA”: the “soluble on expression in E. coli” value is listed as “not soluble”.

For the sequence “SKDLSVSLQANFTYNKNKMVYVDEPEYPTIWKSETGKPYSRITGYIAEGLFKSQEEIDNSPAQNLGSTPKVGDIKYRDLNGDGIIDSDDQTMISKYGSTPRLQYGFGGTVNYKKFDFGVFFSGSALRSIMTNGIDPFQEGIAVGNRNVLKYIADNYWSEEKQNWDAKYPRLGLLATDVANNTVNSSYWLRNGSFLRLKNVEVGYKIPYGRIFVSAANLFTFSPFDLWDPELSSWNSYPMQKTVNVGIQLQF”, the “soluble on expression in E. coli” value is recorded as “not soluble”.

On to “VDSVFVVGHKNLDMDALGASVGMQAFANNIIEHAAYAVYDEDSMSHDVARAVNRLKEDGHTQLLTVKESIEQVSDNSLLVMVDHSKLQLTLSRELYNKFTEVIVIDHHRRDDDFPENAILTFIESGASSASELVTELLQFQNGKYHLNKIQASIVMAGIMLDTKSFSTRVTSRTFDVASYLRTLGSDNVEIQNISALDF”, for which the “soluble on expression in E. coli” value is “not soluble”.

On to “MLCRNTARTGCKFFRLYHSNPIEHVKPIHIKPLTYGKESPQYKVLSLALQKFVPEHGFSERSIVESLNELGYPSSMISSIGAPNSPSFFHSSTAVMELIKFQLVDKRYRLTEGINPDVTPQYKLPSLEHLLLKRLEMDKPIGGHLSELMSQLAIPSAFLFETAIPELHRLSDDMIYFSNEKDHHDSAWYAKRLAVSSTYIGSKLFMAQDKSHNYKETFTFAKDKLHRVMRLGEYYNNTEEFAWYTLMSTVNLIKSQLVRG”, for which the “soluble on expression in E. coli” value is listed as “not soluble”.

In the case of “MHYFSEKPTTKSDVKIVEDILRGKKLKFKTDSGVFSYGKVDKGTKILVENVVVDKDDDILDLGCGYGVIGIALADEVKSTTMADINRRAIKLAKENIKLNNLDNYDIRVVHSDLYENVKDRKYNKIITNPPIRAGKEVLHRIIEEGKELLKDNGEIWVVIQTKQGAKSLAKYMKDVFGNVETVTIKGGYRVLKSKKL”, the “soluble on expression in E. coli” value is reported as “soluble”.

In the case of “MGGSHHHHHHGMASALERYAAALEEVADGARQQERHYQLLSALQSLVKELPSSFQQRLSYTTLSDLALALLDGTVFEIVQGLLEIQHLTEKSLYNQRLRLQNEHRVLRQALRQKHQEAQQACRPHNLPVVQAAQQRELEAVEHRIREEQRAMDQKIILELDRKVADQQSTLEKAGVAGFYVTTNPQELMLQMNLLELIRKLQQRGCRAGNAALGLGGPWQSPAAQCDQKGSPVPP”, the “soluble on expression in E. coli” value is on record as “not soluble”.

“MGHHHHHHSHMQHPQTHRQLKETLYETIIGYFDKGKMWEEAISLCKELAEQYEMEIFDYELLSQNLIQQAKFYESIMKILRPKPDYFAVGYYGQGFPSFLRNKVFIYRGKEYERREDFQMQLMTQFPNAEKMNTTSAPGDDVKNAPGQYIQCFTVQPVLDEHPRFKNKPVPDQIINFYKSNYVQRFHYSRPVRRGTVDPENEFASMWIERTSFVTAYKLPGILRWFEVVHMSQTTISPLENAIETMSTANEKILMMINQYQSDETLPINPLSMLLNGIVDPAVMGGFAKYEKAFFTEEYVRDHPEDQDKLTHLKDLIAWQIPFLGAGIKIHEKRVSDNLRPFHDRMEECFKNLKMKVEKEYGVREMPDFDD”: the “soluble on expression in E. coli” value is recorded as “soluble”.

For the sequence “MSCNSFFVFCANSKKEKKDKILEITPQGTTPLPCSRQSRMRDENGSTRTRGGSRGIKSSKEPDSTDDAFKEMAKRLAKKDKPEKTLDFI”, the “soluble on expression in E. coli” value is given as “soluble”.

With “DYMRFALKGKQGKGMKMPEGVVSSNGEYYMKERMVTDPGLTLDNSGIAPQPSRRAKEDDGGAAEGGRQAADDEVRQDMQETPVLPSNTGSKQQQLDSLF”, the “soluble on expression in E. coli” value is listed as “not soluble”.

Take “VNKLSPRFEINEGTYSSFAVAQEGAAPGAGEVRTHRIAVGLYSLIDGSVTRTHRVELDVDSELTEVPELVGVPAADLVIVNDDDLTYCLMQLDPASLAFVVENIDKIADPMARTLCWSAAWEMTRDGSMRARDFVRLIARGAQAETEIAVLERVLMQASRALSSYVDPQWAEQEGSALLADAMLQAARELEPGSDAQLAFVQALAKVKLTDEAAAEFALIAKGSTSLPGVVVDSDLRWWALTALIARGDVPAAEVEQRIAQLLALDKSSAGELAALRAYAAQPSQDVKAKIFAQITDPANSLSNLYLRHKLEGLQFAGSAPYLEQFSESVFELVEPLWKALSSEVAAVTVTGIYPSWDVSAESVERAHAFLDAHPDLPGAARRIISEGAAGQERAVRLRAIDAA”: the “soluble on expression in E. coli” value is “not soluble”.

For the sequence “MSTPRQILAAIFDMDGLLIDSEPLWDRAELDVMASLGVDISRRNELPDTLGLRIDMVVDLWYARQPWNGPSRQEVVERVIARAISLVEETRPLLPGVREAVALCKEQGLLVGLASASPLHMLEKVLTMFDLRDSFDALASAEKLPYSKPHPQVYLDCAAKLGVDPLTCVALEDSVNGMIASKAARMRSIVVPAPEAQNDPRFVLSNVKLSSLTELTAKDLLG”, the “soluble on expression in E. coli” value is “soluble”.

Take “MKVLEYRFAIAPMFHFIANKSMEAGLHVCDGHAKQTVQLFMNDAVSEKGKKRIGAIQYEGSNDYTAKEPCMVNWRFERALLPDGLKQDLEAITAFRRDQNEGTAINPNAQSIAFKFEALTDAAKETIEAITAVLQKHARC”: the “soluble on expression in E. coli” value is on record as “not soluble”.

For the sequence “MVTKEQVVEALEGIVDPFLHKTLKETSAIKEVTVKPEKEHVSVKIAIVKTGTAEQMQLQSGIVKLVKELGAATVGLRFAEFTEEELAQFAPEQEEEQSESLLSPNSKTTFLAVASGKGGVGKSTVSVNLAVALARLGKKVGIIDADIYGFSVPDMMGIEKRPIVRGDKIIPVERLGVKVISMGFFVEDNAPVIWRGPMLGKMLNHFFTEVEWGDLDYLVLDLPPGTGDVALDVHSMLPSCKEIIVTTPHPTAAFVAARAGAMALRTEHSILGVVENMAYFESKVTGEKEYVFGKGGGDKLATELQTNVLGRIPLQQPDWNKEDFAPSVYEDTHTTGIIYSKIAETVIDKTAVTQK”, the “soluble on expression in E. coli” value is given as “not soluble”.

In the case of “MAEERHHTEHIPQWKKDEIENIKELIQSHKVFGMVRIEGILATKIQKIRRDLKDVAVLKVSRNTLTERALNQLGESIPEMTRYLDNQTALIFTNESPFKLYKLLEQTKTPSPIKAGAIAPEDIIVQKGPTSFPPGPILGELQSAGIPASIDAGKVAVKETKVVCKAGEAVPQKLATMLSKLEIYPLIVGLDLRAAYDDGTIYEPELLAVDESKYFSDIIRAAQNAFNLSVNTAYPTGATIGTLLAKAYAESKSLGVNAVILEPGVMDSLLAKAHVQMTSVASEAAEKDANAVDDDLREVLGAAASAAAAATVAAPAAEEEKKEEEPEEEEEDHAEEDGMAGLGALFGLEHHHHHH”, the “soluble on expression in E. coli” value was “soluble”.
